Measurements reported in the supplement of paper PMC10567573.

B1: PTPRD (parent)
chain: ELDELLKEISRKRRSIRYGREVEL
B2: CHCHD3 (parent)
chain: YSGAYGASVSDEELKRRVAEELAL

Variants of: B1
Experiment: protein stability index of a GFP-peptide fusion (GPS, HEK-293T) (PSI 1-6); higher = more stable
Settings: c terminus: a fixed tail appended
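Further: lentivirally expressed fusions sorted by FACS into six bins by GFP to DsRed ratio, PSI derived from sequencing read proportions per bin multiplied by bin number.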

Point of comparison: L24C, protein stability index 2.38. Against it:
- E23Y — lower, 1.92
- E23W — lower, 2.09
- L24I — higher, 2.42
- L24Y — higher, 2.54
- L24N — higher, 2.97
- L24H — higher, 2.91
- L24E — higher, 2.77
- L24G — higher, 2.5
- L24M — higher, 2.73
- L24F — higher, 2.55
- L24S — higher, 2.69
- L24W — higher, 2.42
- L24R — higher, 3.13
- L24V — higher, 2.92
- L24Q — lower, 2.32
- L24A — higher, 2.69
- L24T — higher, 2.86
- L24D — lower, 2.33
- L24K — lower, 2.33
- L24P — higher, 2.89

Variants of: B2
Experiment: as above
Settings: c terminus: a fixed tail appended

Point of comparison: R16M, protein stability index 2.74. Against it:
- S8Y — lower, 2.07
- S8G — higher, 3.1
- S8M — higher, 3.52
- S8Q — higher, 3.02
- S8C — lower, 2.04
- S8T — lower, 2.01
- S8P — lower, 2.07
- S8V — lower, 1.78
- S8F — lower, 2
- S8E — higher, 3.77
- S8D — higher, 4.18
- S8H — higher, 2.98
- S8I — lower, 2.08
- S8L — lower, 1.42
- S8W — higher, 4.28
- S8R — higher, 2.88
- S8K — higher, 3.2
- S8N — higher, 3.22
- R16E — lower, 2.46
- R16Y — lower, 2.19
- R16P — lower, 2.55
- R16S — lower, 1.95
- R16K — lower, 2.65
- R16D — higher, 3.66
- R16V — lower, 2.17
- R16W — lower, 2.54
- R16I — lower, 2.11
- R16F — lower, 2.3
- R16Q — lower, 2.64
- R16G — higher, 2.92
- R16N — lower, 2.65
- R16T — higher, 3.04
- R16H — lower, 2.45
- R16L — higher, 2.75
- R16A — lower, 2.34
- R16C — lower, 1.92
- A4M — lower, 2.59
- A4W — lower, 2.11
- A4P — higher, 4.24
- A4Q — lower, 2.61
- A4H — higher, 2.84
- A4N — higher, 2.97
- A4G — lower, 2.27
- A4L — lower, 2.7
- A4E — higher, 3.31
- A4Y — lower, 2.15
- A4T — higher, 3.66
- A4C — lower, 2.64
- A4S — higher, 3.39
- A4F — lower, 1.95
- A4D — higher, 4.64
- A4K — lower, 2.63
- A4I — higher, 3.21
- A4R — higher, 3.03
- A4V — higher, 3.03
- G6K — lower, 2.06
- G6I — lower, 2.12
- G6N — higher, 3.36
- G6Y — lower, 1.9
- G6F — lower, 2.09
- G6S — lower, 2.13
- G6C — lower, 2.22
- G6W — lower, 1.64
- G6V — lower, 2.48
- G6D — higher, 4.67
- G6E — higher, 4.05
- G6L — lower, 2.06
- G6R — lower, 2.42
- G6T — lower, 2.11
- G6A — lower, 1.84
- G6M — lower, 2.4
- G6H — lower, 2.3
- G6P — lower, 2.48
- G6Q — higher, 2.81
- K15V — lower, 2.65
- K15N — lower, 2.19
- K15G — lower, 2.58
- K15Y — lower, 2.72
- K15E — higher, 3.33
- K15R — higher, 2.84
- K15T — lower, 2.22
- K15W — lower, 2.04
- K15Q — higher, 2.83
- K15P — lower, 2.29
- K15L — lower, 2.52
- K15S — higher, 3.47
- K15I — lower, 2.5
- K15H — lower, 2.69
- K15C — higher, 3.2
- K15F — lower, 2.11
- K15D — higher, 3.38
- K15M — lower, 2.61
- K15A — higher, 2.99
- G3Y — higher, 3.4
- G3K — higher, 3.17
- G3C — lower, 2.73
- G3F — higher, 3.05
- G3S — higher, 3.37
- G3W — lower, 2.63
- G3M — higher, 3.81
- G3D — higher, 5.41
- G3H — higher, 4.1
- G3Q — higher, 3.96
- G3L — higher, 4.33
- G3V — higher, 3.98
- G3E — higher, 4.87
- G3R — higher, 3.56
- G3T — higher, 2.9
- G3P — higher, 3.78
- G3I — higher, 4.29
- G3A — higher, 2.94
- G3N — higher, 4.18
- L14P — lower, 2.24
- L14R — lower, 2.25
- L14T — higher, 3.12
- L14H — higher, 2.79
- L14G — higher, 3.46
- L14V — lower, 2.63
- L14A — lower, 1.78
- L14C — higher, 2.77
- L14D — higher, 3.3
- L14F — lower, 2.53
- L14M — lower, 2.19
- L14Y — higher, 3.56
- L14I — lower, 2.41
- L14W — lower, 2.34
- L14K — higher, 2.94
- L14E — higher, 3.48
- L14S — lower, 2.31
- L14N — lower, 2.47
- E12A — lower, 2.29
- E12N — lower, 2.4
- E12G — lower, 1.82
- E12W — higher, 3.11
- E12F — lower, 2.09
- E12L — lower, 2.17
- E12T — lower, 2.71
- E12C — lower, 2.2
- E12M — lower, 2.39
- E12D — higher, 2.99
- E12V — lower, 2.37
- E12H — lower, 2.24
- E12S — lower, 2.09
- E12K — lower, 2.53
- E12R — lower, 2.59
- E12I — higher, 2.92
- E12P — higher, 3.73
- E12Q — lower, 2.09
- E12Y — higher, 3.02
- V18D — lower, 2.54
- V18A — lower, 2.42
- V18C — higher, 2.76
- E13D — higher, 2.9
- E13A — lower, 2.61
- E13C — lower, 2.33
- E13R — lower, 2.26
- E13S — lower, 2.26
- E13K — higher, 3.04
- E13T — lower, 2.66
- E13H — lower, 2.67
- E13L — higher, 2.85
- E13V — lower, 2.38
- E13I — lower, 2.2
- E13W — lower, 2.56
- E13M — lower, 1.51
- E13G — lower, 2.18
- E13Q — lower, 2.3
- E13F — lower, 2.49
- E13N — lower, 2.44
- E13P — lower, 2.47
- E13Y — lower, 1.76
- R17H — lower, 2.4
- R17S — lower, 2.52
- R17P — lower, 2.64
- R17W — lower, 2.38
- R17I — lower, 2.4
- R17M — lower, 1.94
- R17L — higher, 2.76
- R17E — higher, 3.17
- R17A — lower, 2.57
- R17T — lower, 2.53
- R17V — lower, 2.63
- R17Q — higher, 2.77
- R17G — lower, 2.36
- R17K — lower, 2.31
- R17N — lower, 2.61
- R17D — lower, 2.54
- R17Y — lower, 2.33
- R17F — lower, 2.12
- R17C — lower, 2.06
- V9Q — higher, 3.18
- V9R — lower, 2.19
- V9H — higher, 2.77
- V9F — lower, 2.67
- V9S — higher, 3.07
- V9P — higher, 3.13
- V9W — lower, 2.71
- V9K — lower, 2.57
- V9A — higher, 3.3
- V9Y — lower, 1.94
- V9G — higher, 3.06
- V9N — higher, 3.35
- V9E — higher, 4.28
- V9M — lower, 2.7
- V9T — lower, 2.19
- V9I — higher, 2.95
- S2K — higher, 4.35
- S2Y — higher, 4.05
- S2E — higher, 4.78
- S2F — higher, 3.45
- S2L — higher, 2.88
- S2G — higher, 3.62
- S2D — higher, 5.1
- S2Q — higher, 3.46
- S2M — higher, 3.24
- S2R — higher, 4.62
- S2W — higher, 4.26
- S2C — lower, 2.48
- S2H — lower, 1.38
- S2N — higher, 3.63
- S2P — higher, 3.22
- S2I — lower, 2.17
- S2V — lower, 1.9
- S2T — lower, 2.27
- A7Y — lower, 2.61
- A7D — higher, 4.27
- A7P — higher, 2.94
- A7G — higher, 3.43
- A7H — higher, 2.98
- A7M — higher, 2.94
- A7W — lower, 1.39
- A7S — higher, 3.48
- A7E — higher, 4.3
- A7K — lower, 2.38
- A7C — lower, 1.72
- A7F — lower, 2.58
- A7V — lower, 2.56
- A7L — lower, 2.42
- A7Q — higher, 3.04
- A7N — higher, 3.61
- A7T — higher, 2.99
- A7R — higher, 2.77
- A7I — lower, 2.71
- Y5K — higher, 4.14
- Y5I — higher, 4.44
- Y5C — higher, 2.75
- Y5V — higher, 4.95
- Y5P — higher, 4.88
- Y5R — higher, 4.59
- Y5N — higher, 4.55
- Y5L — higher, 4.86
- Y5A — higher, 5.09
- Y5M — higher, 3.73
- Y5Q — higher, 5.28
- Y5H — higher, 4.02
- Y5T — higher, 5.01
- Y5S — higher, 4.99
- Y5D — higher, 5.3
- Y5G — higher, 4.92
- Y5E — higher, 5.32
- Y5W — lower, 2.4
- Y5F — lower, 1.33
- Y1D — higher, 5.4
- Y1H — higher, 4.99
- Y1F — lower, 2.71
- Y1S — higher, 5.45
- Y1I — higher, 4.74
- Y1M — higher, 5.2
- Y1R — higher, 4.63
- Y1A — higher, 4.93
- Y1K — higher, 3.73
- Y1C — higher, 3.63
- Y1Q — higher, 5.07
- Y1G — higher, 4.87
- Y1T — higher, 4.34
- Y1L — higher, 4.87
- Y1N — higher, 4.71
- D11I — lower, 2.29
- D11T — lower, 2.24
- D11G — lower, 2.01
- D11N — lower, 2.37
- D11E — lower, 1.55
- D11S — lower, 1.86
- D11R — lower, 2.24
- D11H — lower, 2.08
- D11L — lower, 2.57
- D11K — lower, 2.49
- D11W — lower, 2.31
- D11A — higher, 2.79
- D11Q — lower, 2.34
- D11P — lower, 1.7
- D11F — lower, 2.27
- D11V — higher, 3.23
- D11M — higher, 3.01
- D11C — lower, 2.39
- S10E — higher, 3.58
- S10V — higher, 2.92
- S10W — lower, 1.89
- S10N — lower, 2.4
- S10D — higher, 3.35
- S10F — lower, 2.64
- S10H — higher, 2.98
- S10Q — lower, 2.72
- S10K — lower, 2.46
- S10Y — lower, 2.14
- S10P — lower, 2.6
- S10G — lower, 2.51
- S10T — lower, 2.71
- S10R — lower, 2.66
- S10I — lower, 2.69
- S10L — higher, 2.8
- S10M — higher, 2.86
